Data from patent CN116535503A.

How the values were obtained:
[1] = target: GDF15-HIS(百普赛斯，CAT#:GD5-H5149) (human) (UniProt Q99988); assay: cell-based or functional assay
[2] = target: GDF15-HIS(百普赛斯，CAT#:GD5-H5149) (human) (UniProt Q99988); assay: ELISA, GDF15-HIS coated
[3] = target: GDF15-mFC蛋白(GDF15:Genbank登记号NM_004864.3;mFC:Genbank登记号AAH31470.1) (human; mouse) (UniProt Q99988); assay: competition ELISA: blocks GDF15-mFC binding to coated GFRAL-hFc
[4] = target: GDF15-HIS(百普赛斯，CAT#:GD5-H5149) (human) (UniProt Q99988); assay: BLI (ForteBio Octet), antibody captured at 10 μg/ml, GDF15 6.25-200 nM

Sequence of GDF15-HIS(百普赛斯，CAT#:GD5-H5149) (human) (Q99988 197-308 limits assumed): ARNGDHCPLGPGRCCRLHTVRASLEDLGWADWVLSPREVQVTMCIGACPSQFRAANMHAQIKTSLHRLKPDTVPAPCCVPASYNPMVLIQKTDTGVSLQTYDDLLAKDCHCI

Bottom (fold luciferase activity), HEK293 SRE-LUC2-cRET-GFRAL reporter cells [1]: 1.07
IC50(μg/ml), luciferase in HEK293 SRE-LUC2-cRET-GFRAL reporter cells stimulated with 5 ng/ml GDF15-His [1]: 0.0321 µg/mL
EC50 [2]: 0.096 µg/mL
OD450.Max [2]: 1.1 OD450
IC50 [3]: 0.504 µg/mL
OD450.Max [3]: 1.02 OD450
Kd [4]: < 1 pM
koff [4]: < 1e-07 s⁻¹
kon [4]: 711000 M⁻¹ s⁻¹
Substance: Ponsegromab(Pfizer;Drug Bank:D11909) (antibody)
